Test results taken from patent US7323171.

Target: CD2 on human T cells (human) (UniProt P06729)
Assay: cell-based or functional assay

UniProt P06729, sequence (P06729 25-351 limits assumed): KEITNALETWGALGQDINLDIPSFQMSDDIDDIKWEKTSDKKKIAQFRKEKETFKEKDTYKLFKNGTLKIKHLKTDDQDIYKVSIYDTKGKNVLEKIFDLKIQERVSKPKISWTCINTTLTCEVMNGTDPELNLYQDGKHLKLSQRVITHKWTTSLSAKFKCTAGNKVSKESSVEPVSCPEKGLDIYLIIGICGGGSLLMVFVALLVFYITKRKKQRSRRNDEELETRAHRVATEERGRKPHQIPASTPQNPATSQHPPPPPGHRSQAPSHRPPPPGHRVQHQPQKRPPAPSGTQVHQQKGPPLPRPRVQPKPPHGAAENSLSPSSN

anti-CD2 monoclonal antibody TS2/18 showed an inhibition of allogeneic T cell activation by normal skin cells ([3H]TdR incorporation), antibody at 50 µg/ml of 40% and an inhibition of autologous T cell proliferation ([3H]TdR incorporation) in response to lesional psoriatic epidermis, antibody at 50 µg/ml of 60%.
